Measured values taken from patent US20220411477A1 (MONASH UNIVERSITY, published 2022).

T1: AMH-specific type II receptor, AMHR2 (UniProt Q16671 18-573, limits assumed)
T1 sequence (looked up): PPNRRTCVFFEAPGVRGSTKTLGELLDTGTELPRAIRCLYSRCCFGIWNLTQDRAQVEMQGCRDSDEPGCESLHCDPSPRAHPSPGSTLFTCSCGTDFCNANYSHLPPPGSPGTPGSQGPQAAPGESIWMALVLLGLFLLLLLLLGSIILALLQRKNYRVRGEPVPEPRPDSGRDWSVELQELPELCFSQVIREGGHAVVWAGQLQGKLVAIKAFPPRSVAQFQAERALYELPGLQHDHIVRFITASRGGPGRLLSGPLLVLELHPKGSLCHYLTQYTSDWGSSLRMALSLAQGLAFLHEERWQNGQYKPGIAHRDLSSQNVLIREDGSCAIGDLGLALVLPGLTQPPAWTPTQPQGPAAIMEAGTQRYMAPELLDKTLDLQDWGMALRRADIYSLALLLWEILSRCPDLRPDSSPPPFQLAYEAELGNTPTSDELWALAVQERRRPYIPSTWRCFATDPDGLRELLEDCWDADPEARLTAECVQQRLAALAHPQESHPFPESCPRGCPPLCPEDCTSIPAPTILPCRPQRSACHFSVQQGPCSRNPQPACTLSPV


Target: T1, AMH-specific type II receptor, AMHR2
Assay: cell-based or functional assay

Row | AMH activity relative to wild type (%) | EC50 in COV434 BRE-Luc assay [ng/mL] | Maximal response relative to wild-type (%) | Potency relative to ‘wild-type’ | Binder
1 | 100 | ~6 | – | – | hAMH+SCUT+RSA (Wild type) AMH (ligand) chain 1: HHHHHHPAVGTSGLIFREDLDWPPGSPQEPLCLVALGGDSNGSSSPLRVVGALSAYEQAFLGAVQRARWGPRDLATFGVCNTGDRQAALPSLRRLGAWLQDPGGQRLVVLHLEEVTWEPTPSLRFQEPPPGGAGPPELALLVLYPGPGPEVTVTRAGLPGAQSLCPSRDTRYLVLAVDRPAGAWRGSGLALTLQPRGEDSRLSTARLQALLFGDDHRCFTRMTPALLLLPRSEPAPLPAHGQLDTVPFPPPRPSAELEESPPSADPFLETLTRLVRALRVPPARASAPRLALDPDALAGFPQGLVNLSDPAALERLLDGEEPLLLLLRPTAATTGDPAPLHDPTSAPWATALARRVAAELQAAAAELRSLPGLPPATAPLLARLLALCPGGPGGLGDPLRALLLLKALQGLRVEWRGRDPRGPGISSRKKR chain 2: SVSSSAGATAADGPCALRELSVDLRAERSVLIPETYQANNCQGVCGWPQSDRNPRYGNHVVLLLKMQARGAALARPPCCVPTAYAGKLLISLSEERISAHHVPNMVATECGCR
2 | – | – | ~65 | ~7 fold less potent | hAMH mutant L536I (ligand) chain 1: HHHHHHPAVGTSGLIFREDLDWPPGSPQEPLCLVALGGDSNGSSSPLRVVGALSAYEQAFLGAVQRARWGPRDLATFGVCNTGDRQAALPSLRRLGAWLQDPGGQRLVVLHLEEVTWEPTPSLRFQEPPPGGAGPPELALLVLYPGPGPEVTVTRAGLPGAQSLCPSRDTRYLVLAVDRPAGAWRGSGLALTLQPRGEDSRLSTARLQALLFGDDHRCFTRMTPALLLLPRSEPAPLPAHGQLDTVPFPPPRPSAELEESPPSADPFLETLTRLVRALRVPPARASAPRLALDPDALAGFPQGLVNLSDPAALERLLDGEEPLLLLLRPTAATTGDPAPLHDPTSAPWATALARRVAAELQAAAAELRSLPGLPPATAPLLARLLALCPGGPGGLGDPLRALLLLKALQGLRVEWRGRDPRGPGISSRKKR chain 2: SVSSSAGATAADGPCALRELSVDLRAERSVLIPETYQANNCQGVCGWPQSDRNPRYGNHVVLLLKMQARGAALARPPCCVPTAYAGKLIISLSEERISAHHVPNMVATECGCR
3 | 350 | ~1.8 | ~140 | ~3 fold more potent | hAMH+SCUT+RSA G533S mutant (ligand) chain 1: HHHHHHPAVGTSGLIFREDLDWPPGSPQEPLCLVALGGDSNGSSSPLRVVGALSAYEQAFLGAVQRARWGPRDLATFGVCNTGDRQAALPSLRRLGAWLQDPGGQRLVVLHLEEVTWEPTPSLRFQEPPPGGAGPPELALLVLYPGPGPEVTVTRAGLPGAQSLCPSRDTRYLVLAVDRPAGAWRGSGLALTLQPRGEDSRLSTARLQALLFGDDHRCFTRMTPALLLLPRSEPAPLPAHGQLDTVPFPPPRPSAELEESPPSADPFLETLTRLVRALRVPPARASAPRLALDPDALAGFPQGLVNLSDPAALERLLDGEEPLLLLLRPTAATTGDPAPLHDPTSAPWATALARRVAAELQAAAAELRSLPGLPPATAPLLARLLALCPGGPGGLGDPLRALLLLKALQGLRVEWRGRDPRGPGISSRKKR chain 2: SVSSSAGATAADGPCALRELSVDLRAERSVLIPETYQANNCQGVCGWPQSDRNPRYGNHVVLLLKMQARGAALARPPCCVPTAYASKLLISLSEERISAHHVPNMVATECGCR
4 | 100 | ~6 | – | – | hAMH+SCUT+RSA L535M mutant (ligand) chain 1: HHHHHHPAVGTSGLIFREDLDWPPGSPQEPLCLVALGGDSNGSSSPLRVVGALSAYEQAFLGAVQRARWGPRDLATFGVCNTGDRQAALPSLRRLGAWLQDPGGQRLVVLHLEEVTWEPTPSLRFQEPPPGGAGPPELALLVLYPGPGPEVTVTRAGLPGAQSLCPSRDTRYLVLAVDRPAGAWRGSGLALTLQPRGEDSRLSTARLQALLFGDDHRCFTRMTPALLLLPRSEPAPLPAHGQLDTVPFPPPRPSAELEESPPSADPFLETLTRLVRALRVPPARASAPRLALDPDALAGFPQGLVNLSDPAALERLLDGEEPLLLLLRPTAATTGDPAPLHDPTSAPWATALARRVAAELQAAAAELRSLPGLPPATAPLLARLLALCPGGPGGLGDPLRALLLLKALQGLRVEWRGRDPRGPGISSRKKR chain 2: SVSSSAGATAADGPCALRELSVDLRAERSVLIPETYQANNCQGVCGWPQSDRNPRYGNHVVLLLKMQARGAALARPPCCVPTAYAGKMLISLSEERISAHHVPNMVATECGCR
5 | 100 | ~6 | – | – | hAMH+SCUT+RSA double mutant G533A+L535M (ligand) chain 1: HHHHHHPAVGTSGLIFREDLDWPPGSPQEPLCLVALGGDSNGSSSPLRVVGALSAYEQAFLGAVQRARWGPRDLATFGVCNTGDRQAALPSLRRLGAWLQDPGGQRLVVLHLEEVTWEPTPSLRFQEPPPGGAGPPELALLVLYPGPGPEVTVTRAGLPGAQSLCPSRDTRYLVLAVDRPAGAWRGSGLALTLQPRGEDSRLSTARLQALLFGDDHRCFTRMTPALLLLPRSEPAPLPAHGQLDTVPFPPPRPSAELEESPPSADPFLETLTRLVRALRVPPARASAPRLALDPDALAGFPQGLVNLSDPAALERLLDGEEPLLLLLRPTAATTGDPAPLHDPTSAPWATALARRVAAELQAAAAELRSLPGLPPATAPLLARLLALCPGGPGGLGDPLRALLLLKALQGLRVEWRGRDPRGPGISSRKKR chain 2: SVSSSAGATAADGPCALRELSVDLRAERSVLIPETYQANNCQGVCGWPQSDRNPRYGNHVVLLLKMQARGAALARPPCCVPTAYAAKMLISLSEERISAHHVPNMVATECGCR
6 | – | – | ~65 | ~4 fold less potent | hAMH mutant S538A (ligand) chain 1: HHHHHHPAVGTSGLIFREDLDWPPGSPQEPLCLVALGGDSNGSSSPLRVVGALSAYEQAFLGAVQRARWGPRDLATFGVCNTGDRQAALPSLRRLGAWLQDPGGQRLVVLHLEEVTWEPTPSLRFQEPPPGGAGPPELALLVLYPGPGPEVTVTRAGLPGAQSLCPSRDTRYLVLAVDRPAGAWRGSGLALTLQPRGEDSRLSTARLQALLFGDDHRCFTRMTPALLLLPRSEPAPLPAHGQLDTVPFPPPRPSAELEESPPSADPFLETLTRLVRALRVPPARASAPRLALDPDALAGFPQGLVNLSDPAALERLLDGEEPLLLLLRPTAATTGDPAPLHDPTSAPWATALARRVAAELQAAAAELRSLPGLPPATAPLLARLLALCPGGPGGLGDPLRALLLLKALQGLRVEWRGRDPRGPGISSRKKR chain 2: SVSSSAGATAADGPCALRELSVDLRAERSVLIPETYQANNCQGVCGWPQSDRNPRYGNHVVLLLKMQARGAALARPPCCVPTAYAGKLLIALSEERISAHHVPNMVATECGCR
7 | 500 | ~1.2 | ~190 | ~5 fold more potent | hAMH+SCUT+RSA G533K mutant (ligand) chain 1: HHHHHHPAVGTSGLIFREDLDWPPGSPQEPLCLVALGGDSNGSSSPLRVVGALSAYEQAFLGAVQRARWGPRDLATFGVCNTGDRQAALPSLRRLGAWLQDPGGQRLVVLHLEEVTWEPTPSLRFQEPPPGGAGPPELALLVLYPGPGPEVTVTRAGLPGAQSLCPSRDTRYLVLAVDRPAGAWRGSGLALTLQPRGEDSRLSTARLQALLFGDDHRCFTRMTPALLLLPRSEPAPLPAHGQLDTVPFPPPRPSAELEESPPSADPFLETLTRLVRALRVPPARASAPRLALDPDALAGFPQGLVNLSDPAALERLLDGEEPLLLLLRPTAATTGDPAPLHDPTSAPWATALARRVAAELQAAAAELRSLPGLPPATAPLLARLLALCPGGPGGLGDPLRALLLLKALQGLRVEWRGRDPRGPGISSRKKR chain 2: SVSSSAGATAADGPCALRELSVDLRAERSVLIPETYQANNCQGVCGWPQSDRNPRYGNHVVLLLKMQARGAALARPPCCVPTAYAKKLLISLSEERISAHHVPNMVATECGCR
8 | 100 | ~6 | – | – | hAMH+SCUT+RSA G533H mutant (ligand) chain 1: HHHHHHPAVGTSGLIFREDLDWPPGSPQEPLCLVALGGDSNGSSSPLRVVGALSAYEQAFLGAVQRARWGPRDLATFGVCNTGDRQAALPSLRRLGAWLQDPGGQRLVVLHLEEVTWEPTPSLRFQEPPPGGAGPPELALLVLYPGPGPEVTVTRAGLPGAQSLCPSRDTRYLVLAVDRPAGAWRGSGLALTLQPRGEDSRLSTARLQALLFGDDHRCFTRMTPALLLLPRSEPAPLPAHGQLDTVPFPPPRPSAELEESPPSADPFLETLTRLVRALRVPPARASAPRLALDPDALAGFPQGLVNLSDPAALERLLDGEEPLLLLLRPTAATTGDPAPLHDPTSAPWATALARRVAAELQAAAAELRSLPGLPPATAPLLARLLALCPGGPGGLGDPLRALLLLKALQGLRVEWRGRDPRGPGISSRKKR chain 2: SVSSSAGATAADGPCALRELSVDLRAERSVLIPETYQANNCQGVCGWPQSDRNPRYGNHVVLLLKMQARGAALARPPCCVPTAYAHKLLISLSEERISAHHVPNMVATECGCR
9 | – | – | ~80 | ~3 fold less potent | hAMH mutant L536M (ligand) chain 1: HHHHHHPAVGTSGLIFREDLDWPPGSPQEPLCLVALGGDSNGSSSPLRVVGALSAYEQAFLGAVQRARWGPRDLATFGVCNTGDRQAALPSLRRLGAWLQDPGGQRLVVLHLEEVTWEPTPSLRFQEPPPGGAGPPELALLVLYPGPGPEVTVTRAGLPGAQSLCPSRDTRYLVLAVDRPAGAWRGSGLALTLQPRGEDSRLSTARLQALLFGDDHRCFTRMTPALLLLPRSEPAPLPAHGQLDTVPFPPPRPSAELEESPPSADPFLETLTRLVRALRVPPARASAPRLALDPDALAGFPQGLVNLSDPAALERLLDGEEPLLLLLRPTAATTGDPAPLHDPTSAPWATALARRVAAELQAAAAELRSLPGLPPATAPLLARLLALCPGGPGGLGDPLRALLLLKALQGLRVEWRGRDPRGPGISSRKKR chain 2: SVSSSAGATAADGPCALRELSVDLRAERSVLIPETYQANNCQGVCGWPQSDRNPRYGNHVVLLLKMQARGAALARPPCCVPTAYAGKLMISLSEERISAHHVPNMVATECGCR
